According to the supplement of paper PMC9170038:

System: MS2 coat protein
Assay: apparent KD of MS2 coat protein; higher = weaker reporter binding
Conditions: Eterna round: R107
Procedure, shortened: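 Designed RNA switches were transcribed on-chip from Illumina sequencing clusters and titrated with SNAP-549-labelled MS2 coat protein in twofold steps from 0.7 or 1.5 nM up to 3 µM. Each step lasted 0.8–1.5 h at first and 10–20 min by the end, in 100 mM Tris-HCl pH 7.5, 80 mM KCl and 4 mM MgCl2, without or with constant ligand. Apparent KD is the median, for each design, of fits to normalised cluster binding curves.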

[1] = input ligand: theophylline 20 uM
[2] = input ligand: theophylline 2 mM
[3] = input ligand: tryptophan 2.4 mM

Sequence | apparent KD of MS2 coat protein (input ligand: arginine 13.2 mM) | apparent KD of MS2 coat protein (input ligand: none) | apparent KD of MS2 coat protein [1] | apparent KD of MS2 coat protein [2] | apparent KD of MS2 coat protein [3]
UCACAUGAGGAUCACCCAUGUGUCAGAGAAGGAGCGGCCGCAAGGCCAGGUAGGUCGCUCGGGUAUGGUGAGGUUCACCCGUGUG [#1 Exclusion - Arginine A Attempt #13 (Inspired by cyborg)] | 28.3 nM | 47.3 nM | 73 nM | 57 nM | 56.7 nM
UCACGGCACUGAAGGAGCGAGUUGACAAACAUGAGGAUCACCCAUGUUAUGGGUUGUUAAUCUCAGGUAGGUCGCAGUUGUCGUG [Same State Arginine B GF 21] | 163 nM | 379 nM | 418 nM | 458 nM | 388 nM
UCCUCAUGGCAUGAUACCAGACCUAACAUGAGGAUCACCCAUGUAUCAGGCAAUUGUUACGUCCCUUGGCAGCAUGUAUGCCGAC [Theo B SS t4] | 33.6 nM | – | 91.1 nM | – | 60.8 nM
UCCUGCAGAGCGGCCGCCACUGUAUUGCGUGAGGAUGACCCAACAUGAGGAUCACCCAUGUUGUUUAGGACCGGGCUUGCCACGA [opmullin%] | 13.7 nM | – | 21.2 nM | 15 nM | –
UCGACAGUGAACGAUACCAGCGUCACGUGGCCGGUGGUCACAUGAGGAUCACCCAUGUAACGCCCUUGGCAGCGUGCACGUAUCC [Berisoor] | 17.5 nM | – | 78 nM | – | 25.5 nM
UCGCAUUGCUCAGAUACCAGACAUGAGGAUCACCCAUGUACCAAGGUACCCGAAAGGAAUGUCCCUUGGCAGCUGAGCAAUGCGU [MAT - Exclusion Theophlline B - Mod of Eli - D19] | 10.5 nM | – | 14 nM | – | 10.4 nM
UCGCCCGGGUCGGCCGCCACUGAGGUGAUGUGACAUGAGGAUCACCCAUGUUGUCAUGUGGCACAUAGGACCGGGACCCGGGCGA [Exclusion - Tryptophan B Attempt #3 (HarryS)] | 16.4 nM | 26.3 nM | 41 nM | 16.8 nM | 22.5 nM
UCGCUCGCCGUAAGGCGAGCGAGUUGCGAUACCAGCCCGGAAACGGGCCCUUGGCAGCGCACAUGAGGAUCACCCAUGUCAUGUU [#1 Exclusion - Theophylline A Attempt #5 (HarryS)] | 18.3 nM | 19.5 nM | 35.1 nM | 24.3 nM | 19.7 nM
UCGUGUGUUUCGGAUACCAGUGAAAUCGAUACAUGAGGAUCACCCAUGUGAGAGGAUGUACACCCUUGGCAGCUGGCUGUUGCGG [zezmullin] | 24 nM | – | 36.2 nM | – | 34.2 nM
UCUUACUUGGUAGAUACCAGCGUGUUAUCUUUCUUUUGACAUGAGGAUCACCCAUGUAUAUGCCCUUGGCAGCUGCAUAGUGUGU [#02 Same State - Theophylline B] | 26.9 nM | – | 41.7 nM | – | 30.1 nM
UCUUACUUGGUAGAUACCAGCGUGUUAUCUUUCUUUUGACAUGAGGAUCACCCAUGUAUAUGCCCUUGGCAGCUGCGUAGUGUGU [#03 Same State - Theophylline B] | 21.6 nM | – | 35.7 nM | – | 27.4 nM
UCUUUUUUCUUUUCUUCUUUCGGUUCUUUUCGAGGACCGGUACGGCCGCCACUCGAAACAUGAGGAUCACCCAUGUUUUGGUUUU [Trypto a] | 15.9 nM | – | 17.6 nM | 13.7 nM | –
UGACAUUGCUCAGAUACCAGACAUGAGGAUCACCCAUGUACCAAGAAAACGUACAAUAAUGUCCCUUGGCAGCUGAGCAAUGUCU [TheoBX 9 #MS2Left #Theo2] | 64.8 nM | – | 180 nM | – | 93.6 nM
UGACAUUGCUCAGAUACCAGACAUGAGGAUCACCCAUGUACCAAGAAAGUACAAUAAAAUGUCCCUUGGCAGCUGAGCAAUGUCU [TheoBX 8 #MS2Left #Theo2] | 61.2 nM | – | 137 nM | – | 66.9 nM
UGACAUUGCUGCGAUACCAGACAUGAGGAUCACCCAUGUGCCAAAUAAACGUACAUAAAUGUCCCUUGGCAGCGCAGCAAUGUCU [MAT - Exclusion Theophlline B - Mod of Eli - D29] | 44.9 nM | – | 112 nM | – | 61 nM
UGAUGGUACGGAAGGAGCGUGUAAGAACAAGAACAUGAGGAUCACCCAUGUAUUAAUUUAACACAGGUAGGUCGCCGAGUUAUUG [11.G] | 17.8 nM | 17.3 nM | 26.7 nM | 23.2 nM | 16.5 nM
UGCAAAUGAUGAGAUACCAGUUCAGUUAAAUACAUGAGGAUCACCCAUGUCAGGGAACUCAACCCUUGGCAGCUCGAUGCACUCA [theeternabot_sameState_MS2_Theo_B_43] | 48 nM | – | 56.7 nM | – | 59 nM

Sequence | apparent KD of MS2 coat protein (input ligand: arginine 13.2 mM) | apparent KD of MS2 coat protein (input ligand: none) | apparent KD of MS2 coat protein [1] | apparent KD of MS2 coat protein [2] | apparent KD of MS2 coat protein [3]
UGCCCUGCGAGCGCUCGCAGGGCAGCGGAUACCAGCGAGGUCCAUCGCCCUUGGCAGCCGAACAUGAGGAUCACCCAUGUCGGUG [Same State - Theophylline A Attempt #9 (HarryS)] | 11.4 nM | 14.1 nM | 18.9 nM | 144 nM | 13.2 nM
UGCUAGUGAUCGGCCGCCACUGGCACCUUGAGGAUCCUGCUAAAGUACAUGAGGAUCACCCAUGUCAGGACCGGGAUCAUCAGUG [Onveusonri] | 9.02 nM | – | 11.8 nM | 10.8 nM | –
UGGCGAGAAGGAAGGAGCGUCAGCUGAGUUACAUGAGGAUCACCCAUGUUUUACAUUGUGUGACAGGUAGGUCGCCUUCUGCCCU [SS-ArgB20] | 15.7 nM | 14 nM | 18.8 nM | 16.9 nM | 13.5 nM
UGGGUACAUGAGGAUCACCCAUGUACUGAAGGAGCGGGACGAAUCUCAGGUAGGUCGCAGACAUGAGGAUCACCCAUGUAGUGGA [Exclusion Arginine A GF 15] | 13.9 nM | 15.9 nM | 17.8 nM | 17.2 nM | 14.6 nM
UGGGUAGCAUAGAUUGAUAGUUAAACUGAAGGAGCGAGAAUAAUCUCAGGUAGGUCGCAGACAUGAGGAUCACCCAUGUAGAUGG [Same State Arginine A GF16] | 47 nM | 122 nM | 129 nM | 88.8 nM | 68 nM
UGGGUCGGAUGAGUAAAUUGUCCGACGUAUCGAGGACCGGUACGGCCGCCACUCGGUUGUACAUGAGGAUCACCCAUGUCAGGGU [#1 Same State - Tryptophan A Attempt #16 (HarryS)] | 40.5 nM | 436 nM | 351 nM | 536 nM | 206 nM
UGGGUCGGAUGAGUAAAUUGUCGGACUCAUCGAGGACCGGUACGGCCGCCACUCGGUUGUACAUGAGGAUCACCCAUGUCAGGGU [#1 Same State - Tryptophan A Attempt #17 (HarryS)] | 47.4 nM | – | 336 nM | 749 nM | –
UGGUACAUGAGGAUCACCCAUGUCCUCAUCCGAGGACCGGUACGGCCGCCACUCGAAAUUGCGAUCGGCACAAAACAAAUGCUUG [theeternabot_sameState_MS2_Trp_A_39] | 87.8 nM | – | 205 nM | 179 nM | –
UGGUACAUGAGGAUCACCCAUGUUCCAGAUACCAGUGUCCCGCUGCACCCUUGGCAGCUGGUGGUACAUGAGGAUCACCCAUGUG [Exclusion Theophylline A GF11] | 24.3 nM | 34.1 nM | 42.7 nM | 56.4 nM | 39 nM
UGGUAUGUAGGAAGGAGCGCAUACUUCACAUGAGGAUCACCCAUGUCAAGACGUGAGUCAGUGCAGGUAGGUCGCCUAGUUAUGA [Same State - Arginine B (Freestyle 21)] | 31.2 nM | 42.9 nM | 49.1 nM | 36.1 nM | 33.7 nM
UGUAACAUGAGGAUCACCCAUGUGAGUGAUACCAGACUAGUGUUGGUCCCUUGGCAGCACGCUGGGCGAGUGUGUAGUCUAUGCG [Same State - Theophylline A (Freestyle 17)] | 64.5 nM | – | 100 nM | – | 80.5 nM
UGUAACAUGAGGAUCACCCAUGUGAGUGAUACCAGAUAAGUAGUAGUCCCUUGGCAGCAUAUUGGGCGAGUGUAUAGUCUAUGCG [Same State - Theophylline A (Freestyle 9)] | 125 nM | – | 207 nM | – | 152 nM
UGUAGUACCAGACAUGAGGAUCACCCAUGUCGAGGACCGGUACGGCCGCCACUCGGCAGUUUGCGUCCUCAGGUACUCCGGGUAA [Dianreti] | 14.4 nM | – | 18.5 nM | 14.9 nM | –
UGUAUGGAAACAUGAGGAUCACCCAUGUGGCGAGGACCGGUACGGCCGCCACUCGAGCAGCAAGCGUGUAUGACGCUGCUGCAUG [SS-trypA-0] | 27.3 nM | 40.9 nM | 60.6 nM | 49.7 nM | 25.1 nM
UGUAUGGACUGAAGGAGCGCCUCAAAAUAACUUGAGGAUCACCCAAGUAAGGCGAAAGCCGGGCAGGUAGGUCGCAGUCCAUACU [ArgBX 3] | 24.1 nM | 10.6 nM | 28.1 nM | 15.2 nM | 12.4 nM
UGUAUGGACUGAAGGAGCGGGUUGAUAACCUGAGGAUCAUCCAGGUAAAAGGCGAAAGCCACCCAGGUAGGUCGCAGUCCAUACU | 199 nM | – | 344 nM | 433 nM | 322 nM
UGUAUGUGAUCUGAUACCAGAGUGACGCGAAAGCGAUAACCUGAGGAUCACCCUGGUAAACUCCCUUGGCAGCAGAUCGCAUACU | 53.7 nM | 75.3 nM | 60.2 nM | 24 nM | 79.7 nM
